# Patent US20240101645A1 (HENRY M JACKSON FOUNDATION FOR THE ADVANCEMENT OF MILITARY …, published 2024)
# T1: MERS-CoV spike antigens (bead panel) (MERS-CoV, UniProt K9N5Q8 18-1296)
# T1 sequence: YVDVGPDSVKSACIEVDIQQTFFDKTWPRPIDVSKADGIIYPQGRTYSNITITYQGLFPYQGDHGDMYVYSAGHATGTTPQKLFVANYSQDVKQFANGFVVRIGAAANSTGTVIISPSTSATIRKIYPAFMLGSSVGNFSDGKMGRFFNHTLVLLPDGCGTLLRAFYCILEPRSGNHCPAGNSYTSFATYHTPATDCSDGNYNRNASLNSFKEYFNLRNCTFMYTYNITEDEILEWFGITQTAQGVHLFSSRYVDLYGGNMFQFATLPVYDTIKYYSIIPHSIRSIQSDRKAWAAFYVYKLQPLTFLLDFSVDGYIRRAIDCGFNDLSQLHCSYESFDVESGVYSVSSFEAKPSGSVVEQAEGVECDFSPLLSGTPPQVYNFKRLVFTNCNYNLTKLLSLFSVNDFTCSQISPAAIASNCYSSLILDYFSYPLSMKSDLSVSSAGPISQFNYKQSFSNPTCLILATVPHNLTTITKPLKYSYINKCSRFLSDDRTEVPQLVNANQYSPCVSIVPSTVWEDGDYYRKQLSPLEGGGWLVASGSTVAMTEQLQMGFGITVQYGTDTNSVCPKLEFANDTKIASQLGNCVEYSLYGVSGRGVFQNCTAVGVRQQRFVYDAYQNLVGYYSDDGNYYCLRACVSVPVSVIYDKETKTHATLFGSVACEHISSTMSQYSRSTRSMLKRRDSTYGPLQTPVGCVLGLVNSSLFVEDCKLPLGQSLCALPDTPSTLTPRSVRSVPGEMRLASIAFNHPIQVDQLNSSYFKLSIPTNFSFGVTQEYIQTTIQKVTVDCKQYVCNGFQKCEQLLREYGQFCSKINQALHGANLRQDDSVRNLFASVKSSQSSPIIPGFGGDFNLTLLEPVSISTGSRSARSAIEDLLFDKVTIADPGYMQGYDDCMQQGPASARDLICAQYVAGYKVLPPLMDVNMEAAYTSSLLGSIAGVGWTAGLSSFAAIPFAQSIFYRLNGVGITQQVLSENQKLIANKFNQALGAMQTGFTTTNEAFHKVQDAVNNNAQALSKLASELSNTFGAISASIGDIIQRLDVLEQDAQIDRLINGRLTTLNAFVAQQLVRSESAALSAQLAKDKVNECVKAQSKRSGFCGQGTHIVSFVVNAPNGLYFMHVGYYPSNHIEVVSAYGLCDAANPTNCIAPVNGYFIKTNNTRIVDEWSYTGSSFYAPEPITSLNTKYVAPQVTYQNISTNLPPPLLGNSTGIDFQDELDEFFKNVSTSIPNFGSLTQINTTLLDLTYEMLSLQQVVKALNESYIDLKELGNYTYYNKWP
# T2: HCoV-229E spike antigens (bead panel) (HCoV-229E, UniProt P15423 16-1115)
# T2 sequence: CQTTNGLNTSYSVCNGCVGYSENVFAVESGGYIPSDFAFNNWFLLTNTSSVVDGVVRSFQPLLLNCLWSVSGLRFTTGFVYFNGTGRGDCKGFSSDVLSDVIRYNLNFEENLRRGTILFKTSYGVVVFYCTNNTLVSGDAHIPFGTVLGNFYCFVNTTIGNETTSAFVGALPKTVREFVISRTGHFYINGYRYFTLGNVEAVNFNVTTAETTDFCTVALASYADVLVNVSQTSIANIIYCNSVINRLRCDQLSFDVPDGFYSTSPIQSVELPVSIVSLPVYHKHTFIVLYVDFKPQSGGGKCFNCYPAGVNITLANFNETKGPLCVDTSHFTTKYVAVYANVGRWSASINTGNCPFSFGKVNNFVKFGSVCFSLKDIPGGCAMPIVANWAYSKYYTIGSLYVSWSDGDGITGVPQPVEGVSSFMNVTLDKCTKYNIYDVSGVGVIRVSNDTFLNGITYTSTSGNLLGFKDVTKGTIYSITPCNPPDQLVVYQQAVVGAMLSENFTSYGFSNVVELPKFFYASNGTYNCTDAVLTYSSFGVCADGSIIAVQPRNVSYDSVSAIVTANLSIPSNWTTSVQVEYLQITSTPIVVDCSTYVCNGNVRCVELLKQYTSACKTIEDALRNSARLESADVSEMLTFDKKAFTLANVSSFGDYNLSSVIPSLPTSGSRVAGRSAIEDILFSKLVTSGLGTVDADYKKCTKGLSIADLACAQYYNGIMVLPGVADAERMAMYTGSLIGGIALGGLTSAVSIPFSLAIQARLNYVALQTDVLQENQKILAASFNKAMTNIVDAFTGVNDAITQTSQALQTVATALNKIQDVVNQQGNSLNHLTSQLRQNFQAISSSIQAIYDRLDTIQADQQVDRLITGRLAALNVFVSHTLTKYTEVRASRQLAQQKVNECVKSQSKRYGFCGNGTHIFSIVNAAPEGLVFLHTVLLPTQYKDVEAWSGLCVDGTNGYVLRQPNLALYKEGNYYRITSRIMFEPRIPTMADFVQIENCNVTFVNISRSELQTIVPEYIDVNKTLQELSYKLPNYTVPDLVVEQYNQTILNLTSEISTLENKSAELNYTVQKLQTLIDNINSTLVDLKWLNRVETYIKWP
# T3: HCoV-OC43 spike antigens (bead panel) (HCoV-OC43, UniProt P36334 14-1297)
# T3 sequence: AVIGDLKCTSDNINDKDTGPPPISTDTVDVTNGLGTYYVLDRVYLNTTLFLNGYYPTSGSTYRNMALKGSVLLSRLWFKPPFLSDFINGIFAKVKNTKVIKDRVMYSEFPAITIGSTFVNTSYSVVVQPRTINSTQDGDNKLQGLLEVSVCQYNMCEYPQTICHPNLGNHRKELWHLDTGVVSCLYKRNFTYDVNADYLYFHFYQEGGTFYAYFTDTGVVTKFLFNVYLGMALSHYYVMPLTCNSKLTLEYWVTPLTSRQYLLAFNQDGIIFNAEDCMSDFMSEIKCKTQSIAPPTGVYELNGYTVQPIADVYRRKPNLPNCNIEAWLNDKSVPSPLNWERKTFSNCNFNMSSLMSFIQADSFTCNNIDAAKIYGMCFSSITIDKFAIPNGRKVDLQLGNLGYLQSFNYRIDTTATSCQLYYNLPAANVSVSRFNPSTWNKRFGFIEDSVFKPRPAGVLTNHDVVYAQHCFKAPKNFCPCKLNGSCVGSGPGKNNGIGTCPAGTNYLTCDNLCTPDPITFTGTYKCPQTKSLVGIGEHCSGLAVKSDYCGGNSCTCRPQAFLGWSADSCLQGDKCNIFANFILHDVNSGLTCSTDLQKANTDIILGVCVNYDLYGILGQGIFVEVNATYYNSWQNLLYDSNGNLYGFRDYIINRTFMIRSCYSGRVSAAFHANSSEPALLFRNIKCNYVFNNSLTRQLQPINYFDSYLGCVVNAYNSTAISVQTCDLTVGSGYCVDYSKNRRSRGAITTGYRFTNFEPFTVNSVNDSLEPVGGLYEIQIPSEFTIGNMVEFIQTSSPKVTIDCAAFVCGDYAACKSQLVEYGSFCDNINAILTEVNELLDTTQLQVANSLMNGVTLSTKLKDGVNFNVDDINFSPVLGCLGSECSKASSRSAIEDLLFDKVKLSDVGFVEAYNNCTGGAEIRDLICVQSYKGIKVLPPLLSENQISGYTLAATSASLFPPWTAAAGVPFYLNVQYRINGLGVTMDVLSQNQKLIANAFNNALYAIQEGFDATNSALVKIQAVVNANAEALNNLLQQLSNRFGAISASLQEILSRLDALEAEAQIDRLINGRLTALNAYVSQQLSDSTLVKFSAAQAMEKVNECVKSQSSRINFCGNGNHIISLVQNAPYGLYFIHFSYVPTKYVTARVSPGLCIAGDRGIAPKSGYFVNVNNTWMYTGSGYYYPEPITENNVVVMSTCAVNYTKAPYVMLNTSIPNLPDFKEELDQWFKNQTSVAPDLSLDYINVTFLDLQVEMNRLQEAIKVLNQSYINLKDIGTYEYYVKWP
# B1: COV_2055 (antibody, V domains shown)
# VH: EVQLVESGGGVVQPGRSLRLSCAASGFTLSSYGMHWVRQAPGKGLEWVAVISYEGSNKHYADSVKGRFTISRDNSKNTLYLQMNSLRAEDTAVYYCAKGSTNYFDHWGQGTLVTVSS
# VL: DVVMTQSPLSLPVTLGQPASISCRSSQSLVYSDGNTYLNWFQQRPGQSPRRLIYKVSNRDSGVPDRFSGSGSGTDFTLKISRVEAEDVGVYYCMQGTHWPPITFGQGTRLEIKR
# notes: human IgG1
# B2: COV_1012 (antibody, V domains shown)
# VH: QVQLQESGPGLVRPSGTLSLTCAVSGGSISSSNWWSWVRQPPGKGLEWIGEIYRSGSTNYNPSLKSRVTISVAQSKNQFSLNLTSVTAADTAVYYCAKIIVGAPSDAFDIWGQGTMVTVSS
# VL: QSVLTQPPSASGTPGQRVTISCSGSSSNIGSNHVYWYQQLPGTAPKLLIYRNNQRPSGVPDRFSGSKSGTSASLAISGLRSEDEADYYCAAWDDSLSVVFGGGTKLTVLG
# notes: human IgG1
# B3: COV_2024 (antibody, V domains shown)
# VH: QVQLVQSGAEVRKPGSSVKVSCKASGGTFSTYAISWVRQAPGQGLEWMGGIIPMFGTTNYAQKFQGRVTITADESTRTAYMELSSLRSEDTAVYYCARDGGYDSWPDFDYWGQGTLVTVSS
# VL: EIVLTQSPATLSLSPGERATLSCRASQSISSFLAWYQQKPGQAPRLLIYDASNRATGIPARFSGSGSGTDFTLTVSSLEPEDFAVYYCHQRRNWPPIKTFGQGTKVDIK
# notes: human IgG1
# B4: COV_2056 (SEQ ID NO:432/437) (antibody, V domains shown)
# VH: EVQLVESGGGVVQPGRSLRLSCAASGFTFSIYGMHWVRQAPGKGLEWVALISYDGTNKYYADSVKGRFSISRDDSKNTLYLQMNSLRPEDTAVYYCAKVLMMGDSSGFSLGDAFDIWGQGTMVTVSS
# VL: DIQMTQSPSSVSASVGDRVTITCRASQGISNWLAWYQQKPGKAPKLLIYAASSLQSGVPSRFSGSVSGTDFTLTISSLQPEDFATYYCQQANSFPLTFGGGTKVDIK
# B5: COV_2151 (antibody, V domains shown)
# VH: QVQLQESGPRLVKPSETLSLTCTVSGGSISGSNYFWGWIRQPPGKGLEWIGTIYYGGSTYYNPSLKSRVTISVDTSENQFSLKLSSVTAADTAVYYCANLAWLRGYFDYWGQGTLVTVSS
# VL: NFMLTQPHSVSESPGKTVTISCTRSSGSIASNYVQWYQQRPGSAPTTVIYEDNQRPSGVPDRFSGSIDSSSNSVSLTISGLKTEDEADYYCQSYDSSNWVFGGGTKLTVL
# notes: human IgG1
# B6: COV_3043 (antibody, V domains shown)
# VH: EVQVVESGGGLVQPGRSLRLSCTASGFNFGDNSMSWVRQAPGKGLEWVGFISNRDHSGTTDYAASVKGRFTISRDDSKSIAYLQMNSLKTEDTAIYYCIRDSYGHFPNYGFDVWGQGTMVTVSS
# VL: DVVMTQTPLSLSVTPGQPASISCKCSQSLIHSDGKTYQYWFLQRPGQPPQLLIYDVSNRVSGVPDRFSGSGSGTDFTLKISRVEAEDVGVYYCMHSINFPRTFGQGTKVEIT
# B7: COV_1056 (antibody, V domains shown)
# VH: QVQLVESGGGVVQPGTSLRLSCEASGFTFSAYGMHWVRQAPGKGLEWVAISRNDGTTKYYADSVKGRLTISRDNSKNTLYLQMNSLTSEDTAVYYCANQCGGGCSVDSWGQGTLVTVSS
# VL: QAVVTQEASLTVSPGGTVTLTCGSSTGSVTSGHAPYWFQQKPGQAPRTLIFDTTHKHSWTPARFSGSLLGGKAALTLSGAQPEDEAEYYCLLSFGGAHVFGTGTKVTVLG
# B8: COV_1060 (antibody, V domains shown)
# VH: EVQLVQSGAEVKKPGESLKISCKSSGYTFTSFWIAWVRQLPGKGLEWMGIIYPGDSDTKYSPSFQGQVTISADKSISTAYLQWSSLKASDTAMYYCARLRGSCSNGVCYAYYYNAMDVWGPGTTVTVSS
# VL: QSALTQPASVSGSPGQSITISCTGTSSDIGRYNYVSWYQHHPGKAPKLMIYEVSNRPSGVSNRFSGSKSGNTASLTISGLQAEDEADYYCTSYTSGSTLGFGGGTKVTVLG
# Target: T1, MERS-CoV spike antigens (bead panel)
# Assay: multiplex bead assay
row,Binder,binding result
1,B1,no binding

# Target: T2, HCoV-229E spike antigens (bead panel)
# Assay: multiplex bead assay
row,Binder,binding result
1,B2,no binding
2,B1,no binding

# Target: T3, HCoV-OC43 spike antigens (bead panel)
# Assay: multiplex bead assay
row,Binder,binding result
1,B3,no binding
2,B4,no binding
3,B5,no binding

# Target: SARS-CoV-2 S on pseudovirions (Wuhan Hu-1 / IL1/2020, last 18 amino acids removed) (SARS-CoV-2, UniProt P0DTC2 14-1273)
# Assay: cell-based or functional assay
Binder,"Mean IC50, pSV neutralization","Mean IC80, pSV neutralization"
B3,9.59 µg/ml,≥ 25 µg/ml
B4,13.2 µg/ml,≥ 25 µg/ml
B5,0.12 µg/ml,1.21 µg/ml
B6,≥ 25 µg/ml,≥ 25 µg/ml
B2,≥ 25 µg/ml,≥ 25 µg/ml
B7,≥ 25 µg/ml,≥ 25 µg/ml
B8,≥ 25 µg/ml,≥ 25 µg/ml
